The values below come from patent US20080234471A1.

The target of experiment [1] is GnGn-peptide.
For experiment [2], the target named is MM-peptide.
The target in experiment [3] is GnGn-peptide. This is another data set of the same source.
In experiment [4] the target is GnGnF^6-peptide.

“GlcNAc-α1,3-fucosyl transferase isolated from mung bean seedlings (enzyme)” returned a Specific activity in experiment [1] of 43400 mU/mg.
Take “recombinant GlcNAc-α1,3-fucosyl transferase (enzyme)”: the Rel. Activity in experiment [2] came out at 0%. Further, the Km-Value in experiment [3] turned out to be 190 µM; in experiment [4], 130 µM.
